Experimental findings from patent US20210032343A1 (BEIJING HANMI PHARMACEUTICAL, published 2021) are described below.

The target in the assay is recombinant human PD-1 (product No. 10377-H08H, Beijing Yiqiao Shenzhou) (human, UniProt Q15116 25-167). The assay can be described thus: ELISA, recombinant human PD-1 coated at 1 ug/mL, control antibody, anti-human IgG-HRP detection. In general terms: An ELISA detects its analyte on a solid surface through an enzyme-linked reagent.
recombinant human PD-1 (product No. 10377-H08H, Beijing Yiqiao Shenzhou), sequence (Q15116 25-167 limits assumed): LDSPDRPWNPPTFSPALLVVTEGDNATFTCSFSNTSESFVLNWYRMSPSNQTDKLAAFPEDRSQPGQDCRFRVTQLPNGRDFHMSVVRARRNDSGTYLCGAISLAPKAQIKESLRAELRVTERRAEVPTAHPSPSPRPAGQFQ

Description: The coating concentration was 1 μg/mL. The coating amount was 100 μL per well, and the coating was performed at 4° C. overnight. PBST washing was performed five times. The result was sealed at 300 μL/well using PBST containing 1% BSA, and subjected to incubation for 1 hour at 25° C. PBST washing was performed five times. […] PBST washing was performed five times. Subsequently, 100 μL of the horseradish peroxidase-labeled anti-human IgG antibody (product No. AP309P, available from Chemicon) diluted at 1:2,000 in PBST containing 1% BSA was then added to each well, and the cells were incubated for 1 hour at 25° C. PBST washing was performed five times. 100 μL of the colorimetric substrate TMB was added to each well, and color development was allowed to occur for 10 minutes at room temperature. Color development was stopped by adding 100 μL of 1 M H₂SO₄ to each well. The absorbance at 450 nm was read on a microplate reader.

B1: PD-1 monoclonal antibody (antibody, V domains shown)
VH: QVQLVQSGAEVKKPGSSVKVSCKASGGTFSSTAISWVRQAPGQGLEWMGGIWPSFGTASYAQKFQGRVTITADESTSTAYMELSSLRSEDTAVYYCARAEYSSTGIFDYWGQGTLVTVSS
VL: DIQMTQSPSSVSASVGDRVTITCRASQGISSWLAWYQQKPGKAPKLLISAASSLQSGVPSRFSGSGSGTDFTLTISSLQPEDFATYYCQQANHLPFTFGGGTKVEIK
notes: also called bivalent monoclonal antibody (anti-PD-1)
Regarding B1, the binding result is reported as “binds”.
